Like-named read-outs stand apart in the source and are kept apart here. Blank lines part the entries; values can stand above or below the binder they belong to.
Columns and labels:
human properdin [1] = biological target: T1, human properdin (human, UniProt P27918 28-469); assay: cell-based or functional assay
human properdin [2] = biological target: T1, human properdin; assay: sensorgram kinetics (RU), biotinylated properdin capture method
human properdin [3] = biological target: T1, human properdin; assay: cell-based or functional assay; remark: listed apart in the source
human properdin [4] = biological target: T1, human properdin; assay: Octet bio-layer interferometry; streptavidin biosensors loaded with biotinylated human properdin, construct at 10 ug/mL
Procedure: All washes, dilutions, and measurements were performed in Kinetic buffer (FortéBio cat 185032) with the plate shaking at 1000 rpm. Streptavidin Biosensors (Forté Bio Cat:18-5019 lot: 1405301) were equilibrated in Kinetic buffer for 10 min and then loaded with 50 nm of biotinylated human properdin. For the association phase, 10 μg/mL of selected anti-properdin antibody or kinetics buffer blank was added to the biosensors preloaded with biotinylated human properdin, respectively.

human properdin [5] = biological target: T1, human properdin; assay: cell-based or functional assay; remark: listed apart in the source
human properdin [6] = biological target: T1, human properdin; assay: binding kinetics at pH 7.4
cynomolgus properdin [7] = biological target: T2, cynomolgus properdin (cynomolgus, UniProt A0A2K5V0Z6 29-470); assay: binding kinetics at pH 7.4
T2 construct: properdin of cynomolgus serum in the hemolysis assays; also called biotinylated cynomolgus properdin

human properdin [8] = biological target: T1, human properdin; assay: binding kinetics, biotinylated properdin capture method
cynomolgus properdin [9] = biological target: T2, cynomolgus properdin; assay: as above
human properdin [10] = biological target: T1, human properdin; assay: as above; remark: listed apart in the source
human properdin [11] = biological target: T1, human properdin; assay: binding kinetics at pH 6.0
Human Albumin [12] = biological target: T3, Human Albumin (human, UniProt P02768 25-609); assay: binding kinetics at pH 6.0
Cynomolgus Albumin [13] = biological target: T4, Cynomolgus Albumin (cynomolgus, UniProt A2V9Z4 25-608); assay: binding kinetics at pH 6.0
Human Albumin [14] = biological target: T3, Human Albumin; assay: binding kinetics at pH 7.4
Cynomolgus Albumin [15] = biological target: T4, Cynomolgus Albumin; assay: binding kinetics at pH 7.4

- IC50 (read off the curve) (human properdin [1]): ~10 nM
B1: TPP-2221 (LVP058_hG2-G4, VHH on silent human Fc) (Fc fusion)
chain: LEVQLVESGGGLVQAGGSLRLSCAASGRISSIIHMAWYRQAPGKQRELVAEISRVGTTVYADSVKGRFTISRDDAKNTVTLQMNSLKPEDTAVYYCNALQYEKHGGADYWGQGTQVTVSSRKCCVECPPCPAPPVAGPSVFLFPPKPKDTLMISRTPEVTCVVVDVSQEDPEVQFNWYVDGVEVHNAKTKPREEQFNSTYRVVSVLTVLHQDWLNGKEYKCKVSNKGLPSSIEKTISKAKGQPREPQVYTLPPSQEEMTKNQVSLTCLVKGFYPSDIAVEWESNGQPENNYKTTPPVLDSDGSFFLYSRLTVDKSRWQEGNVFSCSVMHEALHNHYTQKSLSLSLGK

- Kd (human properdin [2]): 0.803 nM
- koff (human properdin [2]): 0.00169 s⁻¹
- kon (human properdin [2]): 2.11e+06 M⁻¹ s⁻¹
B2: AB008 (VHH)
VHH: QVQLVESGGGLRQTGESLRLSCTASGRIFEVNMMAWYRQAPGKQRELVAEISRVGTTTYADSVKGRFTISRDSAKNTVTLQMNSLKSEDTAVYYCNALQYDRYGGAEYWGQGTQVTVSG
notes: Llama VHH, cloned and expressed with a 6x histidine tag; also called anti-properdin VHH AB008

- IC50 (read off the curve) (human properdin [3]): ~20 nM
B3: AB005 (VHH)
VHH: QVQVVESGGGLRQTGGSLRLSCTASGRIFEVNMMAWYRQAPGKQRELVAEISRVGTTVYADSVKGRFTISRDSAKNTVTLQMNSLKSEDTAVYYCNALQYDRYGGAEYWGQGTQVTVSS

- IC50 (read off the curve) (human properdin [3]): ~30 nM
B4: AB006 (VHH)
VHH: QVQLAESGGGLVQAGDSLKLSCTASGRIFEVNMMAWYRQAPGKDRELVAEISRVGTTTYADSVKGRFTISRDSAKNTVTLQMNSLKSEDTAVYYCNALQYSRYGGAEYWGQGTQVTVSG

- binding result (human properdin [4]): binds
B5: TPP-3071 (anti-Albumin LVP058 (G4D)2 (G4) Linker) (bispecific antibody)
chain: EVQLVESGGGLVKPGGSLRLSCAASGRPVSNYAAAWFRQAPGKEREFVSAINWQKTATYADSVKGRFTISRDNAKNSLYLQMNSLRAEDTAVYYCAAVFRVVAPKTQYDYDYWGQGTLVTVSSGGGGDGGGGDGGGGEVQLVESGGGLVQAGGSLRLSCAASGRISSIIHMAWYRQAPGKQRELVAEISRVGTTVYADSVKGRFTISRDDAKNTVTLQMNSLKPEDTAVYYCNALQYEKHGGADYWGQGTQVTVSS
notes: Single chain: anti-albumin VHH, (G4D)2 G4 linker, non-humanized LVP058

- IC50 (read off the curve) (human properdin [5]): ~20 nM
B6: TPP-3072 (anti-Albumin LVP058 (G4E)2 (G4) Linker) (bispecific antibody)
chain: EVQLVESGGGLVKPGGSLRLSCAASGRPVSNYAAAWFRQAPGKEREFVSAINWQKTATYADSVKGRFTISRDNAKNSLYLQMNSLRAEDTAVYYCAAVFRVVAPKTQYDYDYWGQGTLVTVSSGGGGEGGGGEGGGGEVQLVESGGGLVQAGGSLRLSCAASGRISSIIHMAWYRQAPGKQRELVAEISRVGTTVYADSVKGRFTISRDDAKNTVTLQMNSLKPEDTAVYYCNALQYEKHGGADYWGQGTQVTVSS

- IC50 (read off the curve) (human properdin [1]): ~9 nM
B7: TPP-2223 (Anti-properdin control antibody without C1q binding domain) (antibody, human IgG1, kappa, V domains shown)
VH: QVQLVQSGAEVKKPGASVKVSCKASGYIFTNYPIHWVRQAPGQGLEWMGFIDPGGGYDEPDERFRDRVTMTRDTSTSTVYMELSSLRSEDTAVYYCARRGGGYYLDYWGQGTLVTVSS
VL: DIQMTQSPSSLSASVGDRVTITCRASQDISFFLNWYQQKPGKAPKLLIYYTSRYHSGVPSRFSGSGSGTDFTLTISSLQPEDFATYYCQHGNTLPWTFGQGTKVEIKR

- Kd (human properdin [6]): 0.301 nM
- Kd (cynomolgus properdin [7]): 2.33 nM
- IC50 (read off the curve) (human properdin [5]): ~30 nM
- Kd (human properdin [8]): 0.322 nM
- koff (human properdin [8]): 0.000574 s⁻¹
- kon (human properdin [8]): 1.78e+06 M⁻¹ s⁻¹
- Kd (cynomolgus properdin [9]): 2.33 nM
- koff (cynomolgus properdin [9]): 0.00426 s⁻¹
- kon (cynomolgus properdin [9]): 1.82e+06 M⁻¹ s⁻¹
- Kd (human properdin [10]): 0.301 nM
- koff (human properdin [10]): 0.000567 s⁻¹
- kon (human properdin [10]): 1.88e+06 M⁻¹ s⁻¹
B8: TPP-2951 (Humanized anti-Albumin LVP058 (G4S)3 Linker (7-backmutations)) (bispecific antibody)
chain: EVQLVESGGGLVKPGGSLRLSCAASGRPVSNYAAAWFRQAPGKEREFVSAINWQKTATYADSVKGRFTISRDNAKNSLYLQMNSLRAEDTAVYYCAAVFRVVAPKTQYDYDYWGQGTLVTVSSGGGGSGGGGSGGGGSEVQLLESGGGLVQPGGSLRLSCAASGRISSIIHMAWFRQAPGKERELVSEISRVGTTVYADSVKGRFTISRDNSKNTLYLQMNSLKPEDTAVYYCNALQYEKHGGADYWGQGTLVTVSS
notes: Single chain: anti-albumin VHH, (G4S)3 linker, humanized LVP058 with 7 back mutations

- Kd (human properdin [6]): 0.485 nM
- Kd (cynomolgus properdin [7]): 3.08 nM
- Kd (human properdin [8]): 0.485 nM
- koff (human properdin [8]): 0.000834 s⁻¹
- kon (human properdin [8]): 1.72e+06 M⁻¹ s⁻¹
- Kd (cynomolgus properdin [9]): 3.08 nM
- koff (cynomolgus properdin [9]): 0.00587 s⁻¹
- kon (cynomolgus properdin [9]): 1.91e+06 M⁻¹ s⁻¹
B9: TPP-3261 (Humanized anti-Albumin LVP058 (G4S)3 Linker (3-backmutations)) (bispecific antibody)
chain: EVQLVESGGGLVKPGGSLRLSCAASGRPVSNYAAAWFRQAPGKEREFVSAINWQKTATYADSVKGRFTISRDNAKNSLYLQMNSLRAEDTAVYYCAAVFRVVAPKTQYDYDYWGQGTLVTVSSGGGGSGGGGSGGGGSEVQLVESGGGLVQPGGSLRLSCAASGRISSIIHMAWVRQAPGKQRELVSEISRVGTTVYADSVKGRFTISRDNSKNTLYLQMNSLRAEDTAVYYCNALQYEKHGGADYWGQGTLVTVSS
notes: Single chain: anti-albumin VHH, (G4S)3 linker, humanized LVP058 with 3 back mutations

- Kd (human properdin [2]): 0.344 nM
- koff (human properdin [2]): 0.000359 s⁻¹
- kon (human properdin [2]): 1.04e+06 M⁻¹ s⁻¹
B10: AB007 (VHH)
VHH: QVQLVESGGGLVQAGGSLRLSCAASGRISSIIHMAWYRQAPGKQRELVAEISRVGTTVYADSVKGRFTISRDDAKNTVTLQMNSLKPEDTAVYYCNALQYEKHGGADYWGQGTQVTVSG
notes: Llama VHH, cloned and expressed with a 6x histidine tag; also called anti-properdin VHH AB007

- IC50 (read off the curve) (human properdin [1]): ~20 nM
B11: TPP-2224 (LVP058 (G4S)3-anti-Alb-tandem VHH) (bispecific antibody)
chain: LEVQLVESGGGLVQAGGSLRLSCAASGRISSIIHMAWYRQAPGKQRELVAEISRVGTTVYADSVKGRFTISRDDAKNTVTLQMNSLKPEDTAVYYCNALQYEKHGGADYWGQGTQVTVSSGGGGSGGGGSGGGGSEVQLVESGGGLVKPGGSLRLSCAASGRPVSNYAAAWFRQAPGKEREFVSAINWQKTATYADSVKGRFTISRDNAKNSLYLQMNSLRAEDTAVYYCAAVFRVVAPKTQYDYDYWGQGTLVTVSS

- Kd (human properdin [11]): 2.57 nM
- Kd (Human Albumin [12]): 0.646 nM
- Kd (Cynomolgus Albumin [13]): 2.3 nM
- Kd (human properdin [6]): 0.172 nM
- Kd (cynomolgus properdin [7]): 1.98 nM
- Kd (Human Albumin [14]): 0.774 nM
- Kd (Cynomolgus Albumin [15]): 7.07 nM
- IC50 (read off the curve) (human properdin [1]): ~10 nM
- Kd (human properdin [10]): 0.172 nM
- koff (human properdin [10]): 0.000349 s⁻¹
- kon (human properdin [10]): 2.03e+06 M⁻¹ s⁻¹
B12: TPP-2225 (anti-Albumin LVP058 (G4S)3 Linker) (bispecific antibody)
chain: EVQLVESGGGLVKPGGSLRLSCAASGRPVSNYAAAWFRQAPGKEREFVSAINWQKTATYADSVKGRFTISRDNAKNSLYLQMNSLRAEDTAVYYCAAVFRVVAPKTQYDYDYWGQGTLVTVSSGGGGSGGGGSGGGGSLEVQLVESGGGLVQAGGSLRLSCAASGRISSIIHMAWYRQAPGKQRELVAEISRVGTTVYADSVKGRFTISRDDAKNTVTLQMNSLKPEDTAVYYCNALQYEKHGGADYWGQGTQVTVSS
notes: Single chain: anti-albumin VHH, (G4S)3 linker, non-humanized anti-properdin VHH LVP058; also called anti-Alb-LVP058

From patent US20190352381A1 (Alexion, published 2019)
